The target in the assay is mouse VMS1-Flag-HA (mouse) (UniProt Q80UU1). Put plainly: co-IP.
Chain of UniProt Q80UU1 (Q80UU1 whole entry): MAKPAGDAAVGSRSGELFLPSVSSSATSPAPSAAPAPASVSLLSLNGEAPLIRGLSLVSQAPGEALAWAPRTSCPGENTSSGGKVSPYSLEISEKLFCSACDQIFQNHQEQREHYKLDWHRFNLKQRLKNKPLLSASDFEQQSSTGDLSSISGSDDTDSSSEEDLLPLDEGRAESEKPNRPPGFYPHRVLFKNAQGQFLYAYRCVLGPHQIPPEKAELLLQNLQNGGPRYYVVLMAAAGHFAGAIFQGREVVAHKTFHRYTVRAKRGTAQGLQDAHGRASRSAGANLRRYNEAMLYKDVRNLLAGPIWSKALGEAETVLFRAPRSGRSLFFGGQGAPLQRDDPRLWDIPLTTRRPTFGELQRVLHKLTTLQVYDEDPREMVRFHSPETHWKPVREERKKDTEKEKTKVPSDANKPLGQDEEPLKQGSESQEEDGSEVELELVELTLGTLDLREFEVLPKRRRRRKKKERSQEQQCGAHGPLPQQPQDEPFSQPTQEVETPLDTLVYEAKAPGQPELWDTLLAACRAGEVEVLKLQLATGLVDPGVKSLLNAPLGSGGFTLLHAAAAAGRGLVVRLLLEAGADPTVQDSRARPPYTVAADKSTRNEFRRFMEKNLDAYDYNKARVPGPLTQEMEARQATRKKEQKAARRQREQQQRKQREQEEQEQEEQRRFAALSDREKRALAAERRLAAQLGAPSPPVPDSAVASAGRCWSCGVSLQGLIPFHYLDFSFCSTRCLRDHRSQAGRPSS

Chain of VCP (Q01853 whole entry): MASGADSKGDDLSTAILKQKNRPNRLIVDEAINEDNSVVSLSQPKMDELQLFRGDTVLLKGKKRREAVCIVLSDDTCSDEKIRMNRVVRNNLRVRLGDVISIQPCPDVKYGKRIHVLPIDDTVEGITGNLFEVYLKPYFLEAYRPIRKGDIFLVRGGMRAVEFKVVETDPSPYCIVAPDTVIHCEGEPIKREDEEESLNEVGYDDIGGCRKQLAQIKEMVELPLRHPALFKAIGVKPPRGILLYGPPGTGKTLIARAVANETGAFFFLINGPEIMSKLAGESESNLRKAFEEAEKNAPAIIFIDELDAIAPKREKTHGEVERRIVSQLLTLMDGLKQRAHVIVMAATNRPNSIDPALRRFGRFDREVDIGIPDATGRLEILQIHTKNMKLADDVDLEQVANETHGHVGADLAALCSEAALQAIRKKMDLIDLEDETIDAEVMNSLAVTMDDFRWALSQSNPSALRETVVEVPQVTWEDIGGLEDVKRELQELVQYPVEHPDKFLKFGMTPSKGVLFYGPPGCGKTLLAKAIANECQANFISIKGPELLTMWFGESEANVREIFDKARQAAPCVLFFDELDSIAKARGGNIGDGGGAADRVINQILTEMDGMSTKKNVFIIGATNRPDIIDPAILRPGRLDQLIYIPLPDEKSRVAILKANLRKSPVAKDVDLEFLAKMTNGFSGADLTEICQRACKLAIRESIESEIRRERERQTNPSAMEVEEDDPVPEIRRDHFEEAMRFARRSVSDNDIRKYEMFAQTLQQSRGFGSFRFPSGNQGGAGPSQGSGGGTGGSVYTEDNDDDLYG

For the substance “VCP (from UniProt Q01853 1-806) (natural protein)”, the percent of the total cellular VCP associated with Vms1 is < 5%.

These data come from publication PMC2998070.
